Key:
[1] = target: Hsp90 from Saccharomyces cerevisiae (Hsp82) with D61C, CpK at position 452 and a C-terminal coiled-coil motif, labelled with Atto 550 / Atto 647N and DNA oligonucleotide (Saccharomyces cerevisiae) (UniProt P02829); experiment: optical tweezers (single-molecule force spectroscopy); dye-labeled Hsp90 dimer tethered at position 452 by 2.5 kbp DNA handles; constant velocity 500 nm s^-1; 2 mM AMP-PNP, incubated 30 min at 21°C; 26 traces
[2] = target: Hsp90 from Saccharomyces cerevisiae (Hsp82) with D61C, CpK at position 452 and a C-terminal coiled-coil motif, labelled with Atto 550 / Atto 647N and DNA oligonucleotide (Saccharomyces cerevisiae) (UniProt P02829); experiment: optical tweezers (single-molecule force spectroscopy); dye-labeled Hsp90 dimer tethered at position 452 of both monomers between two beads by 2.5 kbp DNA handles; constant velocity 500 nm s^-1; no AMP-PNP; 147 unfolding traces
[3] = target: Hsp90 from Saccharomyces cerevisiae (Hsp82) with D61C, CpK at position 452 and a C-terminal coiled-coil motif, labelled with Atto 550 / Atto 647N and DNA oligonucleotide (Saccharomyces cerevisiae) (UniProt P02829); experiment: optical tweezers (single-molecule force spectroscopy); dye-labeled Hsp90 dimer tethered at position 452 of both monomers between two beads by 0.5 kbp DNA handles; constant velocity 500 nm s^-1; no nucleotide; 172 unfolding traces

Hsp90 from Saccharomyces cerevisiae (Hsp82) with D61C, CpK at position 452 and a C-terminal coiled-coil motif, labelled with Atto 550 / Atto 647N and DNA oligonucleotide (from UniProt P02829 1-709) (natural protein)
dissociation force, C-terminal dimer dissociation [1]: 10.7 pN
force of N-terminal dimer opening [1]: 8.8 pN
dissociation force, C-terminal dimer dissociation [2]: 16.5 pN
dissociation force, C-terminal dimer dissociation [3]: 16.8 pN

Source: article PMC11915586
